The series in a line: label from the status in PepcDB records.

On to “MRAHGRRVSKRQPDSPGRLRGAFGSRLHLSPLTRLPARPIWRPRAGCAVPLAGPGCDPAGFMLKSPSFPFSAPAMLRHLPMTYCAIDFGTSNSAVALPDGDGMRLAPVEGDHLTLPTAIFFNNDEQTVEYGRAALASYIDGFDGRLMRSMKSILGSPLAETTTDLGDGSAMAYTEIIARFLTHLKRKAEARAGAPIGRAVLGRPVFFVDEDPRADRLAQDQLEAAARSVGFTDVHFQYEPIAAAFDYESRQQAERLVLVADIGGGTSDFSLVRVGPERMARLERKDDVLAHHGVHVAGTDYDRRVELAAILPAFGYRALDPEGRELPNRIYFDLATWHLINTVYTPKRLGELKLMKHLYQDGRQHDRLMSVVEQRLGHALMARAEEAKIGVAAGGETMIDLNDVEEDLQIAFDAERLVEASVDDTARIVDAARETVRLAGVAPRDLGALYFTGGSTGLAFLSGALAGAFPDAQPVFGDRLASVATGLGIHAQRLFG”, for which the protein production result is “failed”.
Turning to “MRAQMKQYNCHEGALPFTKSYLLRPLFNAFLMSPKPFHTTEACIGCKKCEKVCPVGNITVTDRPVWGGNCTQCLACYHVCPVHAVEYLEHHHHHH”, the protein production entry was “failed”.
Turning to “MRARHASCMHPPSLSADPVALMTDTPASSETSASGWRRALPVIVSLAILAMALHALSSQFTDHGYRQIRHAFRALGAGQITLTLLLGLSSYVCLVGFDWVGLKRTGKQLHPARVGITAFMAHAVGQTLGFAALTGGAVRLRGYGSVGLTLAEIGQVVLMSTLGFIFGAWVLLGLALMLEPEAAARALPITAQAIRIAGIALLVGYVAMLMLVGRQGREFGIRSHRFWLPDRTTVLGVTALSVVELGLAAAAFYVLLPPDSGTGYFGFIGIWLVAVVAGLISTVPAGLGVFEWSLLELLPHVTPAAVLAAALVYRVTYYIVPLLISVAMAAASGLRVPVRVGASTARSVWKALRPWLPQILALAVFAVGAALVIDGTLPTPAARQEVAPLPLIETSHLLVSLGGMMLLLIGQGLQRRSHSAWMLALGVCLLVPPFALLRGSHISVSLSAALAAVALWAARREFYRQGALLDEAWSWRWLSNLGLVLVATFWLLFFVYSHVEYSNDLWWQFATSANAPRALRAALILCVGVIVFGMARLLRGGRRPMPAADAPTLRTLAPILATSTDTQACLALTGDKAFLLDEQSSGFVMMQRYGGSLISMGDPVGSPEVARALIWRFREEADQMGLRTVFYQVGEKHWQTYLDMGLTLVKLGEEAIVPLEGFTLEGRDRADLRQAWNRGKRGGLSFRMLQPEQVDEVLPRLAEVSDQWMEEKSGEEKGFSLGSFDADYLRRFPVAVAEAEGQIVAFANVWWAPAGGELSVDLMRHSAEAPKGTMDFLFIELFLWGQANGYTRFSLGMAPLSGLAEHRLAGRWNRFASLVARHGERFYGFSGLRRFKSKFDPTWRPRYLVAPGGMHLPAALLDVTRLISADPRRQE”, the protein production entry is “failed”.
For “MRCANCGNELKAGSLYCDVCGHPVQIVPDYNEFDDYLDNLVGNDDRRTDGQKTAKPVSDRTIRFDDPVREQLHSAGQWNGQKTDRMSQSVKQQVRQAQTGEQQSQTKQPCEKPQSDGQRAKRAQQKKIIIISAVVCAVAIVILIAAITRNVSRSHDNSFDYQVKQAKAAYSAGNINSAVSYYEKALSIDSDNTDVRFALADIYMSKKDYDAALVLYQEIINIDPKSKEAYKQLISIYESKKDYDAIVALRESAKDASVLKLFADYTVSKPQFSKSSGKYGETMELSIDADSDTKIYYSYDSDDPLTRGERYYSPITLDKEGTYEITAVAVDDRGIKSEVASAKYEIEFEAPDAPEIDPDGGTFGAQTDITITVPENCKVYYTWDSSDPSAASTEYTAPIPVPEGNNVLSVIAIDQNTGKCSDIYRSRFEFYMN”, the protein production result is on record as “failed”.
The result for “MRDHPADRLQSITVTAFYQEPNVPTHSLSDYTSWIERTWQGQVSFTELVTYAETLNSHPALCAALYRTWLQRNTGVFNSVAWFNLGVILFAENNLIDSIEAFQKALALSPAFPQARINLGLALERQGNAEAAIEQWQAVVENAITPEADQNTGPNQADQIKNLTMALNNIGRLQETRRQYQAATQALEKSLQLDPDQPDAIHHLIFQRQKQCQWPVYAPVGKVTEAVLHEHTSALAMLNISDAPEAQLTAALNYSRRKIPADLPRLSPANGYRHDKIRVAYCSSDFCTHPVAMLTVELFEHHDKNRFETYAFCWSPDDGSTLRQRILSAVDHYIPVHGKSDDEVAQLIRQHEIDILIDLQGQTSGAKTRMLAMRPAPMQITYLGLPATTGLPGIDYVIADRYLIPEEYARFYSEKPLYMPDVYQVSDRKREHSPAPTRKDCGLPARKFVFCSFNNNHKYTLEVFTTWMNILRRVPNSVLWLLADNPWARENLQKQAKAQGIDPKRLVFAERTMPADYLARYLVADLFLDTFPFNAGTTANDALWMGLPVLTMSGRSFASRMAGALLTAADLPELITHDLQTYEDKAVALAADAKARKTMRQKLALAKESGPLFDSLRFTRNLEQQYIALVSELQNPSQHINISAQPEPTKLGEPAQPNPIIATVQEAEALQARGDTQGAIQLYRQWLEHAHSGDEWIAQFNLGVLLRDGGDITGAQQAFQAVLKQKPDFVQARAALGKLPAPVTTESQKHGAIIGPLQTNSPISTKSKEQITQIFSETPKIKLLVEGWRGINHSFALVNQYHLYEWMRSSQLHIYHRDMPLLFSHWETNKNRGNTGLPGTYSQRLAQVQHWSGQTYDACFRIYSPVTLAPDDKHPVSTFLVTELGLDETQIAHFRPNLKAYFNMGGNIVTPSHWSKERIIEAGIPAEHIHLISHGVASNIFHPMHSDERAIHRQRLGFDREAVIFLNVAAPIWNKGLDLLIQAFVQCFHQNPHTRLLIKDQQAVYGISTKDTVLREITLLGESKNESLLNAIRVIPDLNLLQLRELYCIADYYVSPYRAEGFNLPVIEALVCGTPVIVTEGGATQDFCSEKNALFIEAVPYRNVKINDRHVNAYQAPILDSLITHLNVCAQDKPFSESQRLQNAASIAKNFTWAKAADTISRLFTQSNDCNTSTSQITGALHEEPQYCN” reads “failed”; that for “MRDLLNDLSEGLSHPDPILRAQIQMQKPLPKRFYKDVTVADVEEGGFTILLDGKPLRTPAKKPLVAPSRALADLLRDEWDAQKEVVNPVVMPVSRHVNTAIDGIASDTQAVFEDILRFSSSDLLCYRAGDPEALVARQTDYWDPVLDWATNVLGARFILVEGVMHRDQPREAIAAFAVTLKKYDTPIALAALHTMTSLTGSAILALALAEGELTLEEAWALAHLDEDWTAEQWGEDEEALERRAVRLIDMRAALNVLESLKSAS”, “not failed”.
In the case of “MRDPRLAPFRAPALAFAALLLVSAASGAVLFVLKLGTTAARVQEFYLGSEARFTAPRTLGGILEVAVPHLVAVPLVLFAVAHLVAFTRALRPRPYAALVRLSFGCALAGALAGLGIRFVAPWLAWVKIGAFVGLEAALLAWAALLVGLFLPDRAEAHARRAAAADGASPQRVPGAPRRD”, the protein production entry is reported as “failed”.
In the case of “MRDTRESRLLLVLLVAIAFALITVDIRGGQDSPVDGARQAAATVFGPIENGVSSAVDPVGNAVAAVRDSGSRHDRIAQLEHDNAALKAKLGSDDRNRSRLKQLNKMIRVAGEGQYGIKGAEVIGIGAAQGFSWTVTIDVGANDGIKRDMTVLNGDGLVGRVTTVGPNAATVLLANDPDFTVGTRMESSDELGFASGQGDRPLRVQLLNGKAKVVKGDRLVTFGSQADRPFVPGVPVGVVSRVDPSGGDLTRTVYVTPYVSFTKLDIVGVVVAAPKKDPRDEVLPPKPRPTPTPTVTVTVTPSANASADGQQQQQ” it was “failed”.
“MRDTTWHVPEDDLRAYVQGELAPPRLWSADTHLAACERCRAALAEAGDPVALDAAWERLDAELDAPRPGMFESLLVRAGVADHTARLLTATPVLRRSWLGAVAFLLVMTVGIVLTVDSPALFLALAPLLPLAGVALSYGPVLDPTYEMAVVAPLHGFRLLLIRTLAVLATGLLLNGLATLALPGYGLRALAWLLPALALTGTGLALTPRLGPVLAPALTGGAWIGLLLVAQARTHETLAPFTMAGQGAAAVVAALAAGLLYRTRDRFDSVAARLPFAHLPGGGAV”: the protein production entry was “failed”.
“MRDWPAFLLALLVAFALWYSLQERAPVVERSLKVPLQVVGLGEGRRALGLPREVLLRLRGPAPLLEGRALPVSAYLDLSGAEGEVVREVRVAAPQGVEVLEVVPARVGVVVEVEAQRQIPVEVLAQGAWVLTDPAFVEAVGPESQVEAAVSAVGLDLGDEVVLFPLGPEGPLEGVELRPNRVRVVERREALFLKEVPLSLNPPPGRRLLDYAPKTVRLVGPREALEGLAGVTATLQEALGPGEVEVAVAPDLPPGVHTLGPVRVRVALELEHHHHHH”: the protein production entry was “failed”.
Turning to “MREAGDAIARLRTLRDAAGRLVASRASLLRRAPVGLVVAAVVIPLVGCDTGPNFWFHKRASACPRPQVAQGVSGQFNQQQQEIRALRQGGFRGDFFAQLELARRYEGQRAVDKNLEDPVEAAVWYAMALANSGGYAPIAAYERRGKESRAVSRFDDCRAFERRSAYGALDRLLSRMSTEEREKVRNRVIYILSTQSADGFRTLARMHDGYFGPFGEPSDNLQAIEAYGKPSQPGAPAALDLFRRNDVDAYLYNYLAVQTGDVSAYVMLKDFERSSPQRASYGSFVETKAKRWIPPYEFYPPESPDSGVPHSDEADLSGEARESALYRIAELPFVHVGESLAYLRVIPTAVLDEKMLSVTEVQTLQSMIGRPNTGRLAPIEKVRAVQYAAVNGSSKAQLVLAVMYSEGVGVPRDYARAYHWYEEAERQGSAEAKYAMSTFFSLGLQGVADQDRAKAVVYQIDGALAGFKPSAWRLQQLLAQVSRPPRAAGERPQPRPIYGADDYRAAPRADDRDPRQDQPGSDRGGRPYNEGNY”, the protein production entry is recorded as “failed”.
Regarding “MREDAARDRMRGFGFHEHVISESIKELLEVYEDQWFLIEDDSYGPLLAICLEKQEEKEKQLAEVQANQLPENHNEEMAEEEQPNQLAVEIHEEEKEQEQDMHIEYGRDQADELSINSEAVNDPSPAAIHLGEASSDYAQSSVRGVENLHCGWLIDEEETDPEEETDPEEKETEPEDPKEKETEPEEDSDGDDDEIIQLTPEPLCEELQELLREVRGQKRRKKEMRWDK”, the protein production result was “failed”.
With “MREEHSPVRDGRRSGGLRSLIDPRFLSSFALNDGGSISGRRSSYLKLPPQGRIKLSVVKLNGSLFDVEVAKDCSVAELKRAVEQVFTISPLEGHGMISWSHVWGHFCLCYRDQRLVNDKTSIRYLGLNDGDQLHFVRHLSIDHSPMNKRSKSPSCKRYLELDVSSIVNEIQIQNQNQNGVDDVAEKCYPGAQDELPAAESRLVNLIKGWLPYAGRWGVSRKGPECRSGPSRFSLKHFGGRPKM”, the protein production entry is recorded as “failed”.
“MREEKIREALNAHWQASAAGDFDAEHDIYDDDAICDYPQSGERILGRMNLQALRSHHPGKPAGFEVRRIQGEGNLWITEYSISYNGRPAYTVSIMEFRNGKVVHETQYFSDPFEAPGWRSQWVQQIG”: the protein production result is reported as “not failed”.
The result for “MRELTSNEMNNVSGGDLASRLEASIVGSVAGFFAGSIWGGTRGGDGGGILGVGSIGQGVGMIYGGIAGAIGGAIGAFVIDKTLTYTYTTGFMNSLFSGTFAK” reads “failed”; that for “MREMQIMSQPEQSRLDLFIDRMVSQRACLEHAIAQTAGLSGPVYELGLGNGRTYHHLRQHVQGREIYVFERAVASHPDSTPPEAQLILGDIRETLPATLERFGATASLVHADLGGHNREKNDRFARLISPLIEPHLAQGGLMVSSDRMYFEGLEELPLPPGAVVGRCFIYRRG”, “not failed”.
As for “MRENSTKPPQPHISEPADVAESRFISVAIPTFRRPDTIRRAIDSVLHQDFSNWELIVSDDEGPDGQTWAMLTDYARADPRIRIVENRRGRGQVENTNNVMLACRGSWIKLLHDDDWLAPKALGTFAQVAQQYPSAAFITCATNRVEDDRVKLRSARPGKKHVTVCSSQQTLKDLYLVRTTRSFGIIPSSLLVNSIVVQNGCLMRTYKSITAGVDQLFFIDLARHGDMVMIEDGLIFYDATNHSSVTASTTFDDVDRETIDLKHLTWSLIEDKHELPDPETIAGALQVARLRSRFRHQPWGSTIRHALQIFHPSVTKAVNQDIFARVQAVLRRRLRRTNW”, the protein production entry was “failed”.
